According to PMC5009728 (Nucleic Acids Research, 2016):

B1: 6×His-thioredoxin-fused ZAD domain of ZIPIC (aa 3–81) (domain or fragment, Drosophila, UniProt Q9VAB8 3-81, looked up)
chain: CCICQFSVRVPKDIHTDTVGHPPVLISELVLQCTRGTNYVLTEESSTICKKCCEKLARYHKSIQIARKLRGEILELIHS
B2: 6×His-thioredoxin-fused ZAD domain of Grauzone (aa 1–84) (domain or fragment, Drosophila melanogaster, UniProt Q9U405 1-84, looked up)
chain: MDICRLCLRGVSGAQMCLQIFDVDSGESKVAEVLRQHFWFEVLPNDEISKVICNVCWTQVSEFHQFYVSIQEAQVIYATTSKFK
B3: 6×His-thioredoxin-fused ZAD domain of Pita (aa 1–109) (domain or fragment, Drosophila melanogaster, UniProt Q95RQ8 1-109, looked up)
chain: MAAKLEVREAMLTEKRVCRFCLTEQKLASIFEENPRVKTTANLPLQIMAITAIEVYAGDGMPGHICLECRLLFEHCYRFKQMCKRAETLLRQYPLTGNWPSPLEKPRAP

Columns and labels:
[1] = target: 6×His-thioredoxin-fused ZAD domain of Zw5 (aa 1–103) (Drosophila melanogaster); experiment: cross-linking
cross-linking = target: the molecule itself; experiment: cross-linking

Molecule	stoichiometry N [1]	stoichiometry N (cross-linking)
6×His-thioredoxin-fused ZAD domain of Zw5 (aa 1–103) (domain or fragment)	2	
B1		2
B2		2
B3		2
